In patent US20220054617A1, “SUBUNIT VACCINE CONSTRUCTS FOR FLAVIVIRUSES” (priority 2018, published 2022):
“Also recorded” adds a separate entry of the source.

Experiments:
ZIKV antigen = target: T1, ZIKV antigen (Zika virus, UniProt Q32ZE1); assay: Serological cross reactivity matrix (ELISA), ZIKV antigen; assay type: binding; settings: Immune-2 rabbit sera
T1 construct: made in house; host or cells: E. coli BL21(DE3)-pRARE
Excerpt: (§1) FIG. 10B-FIG. 10C show exemplary results of a serological cross reactivity matrix. Immune-2 sera from rabbits immunized with the 6 antigens were screened by ELISA for homologous titers. Samples with highest titers were examined for immunoreactivity with all antigens. […] DENV-1 Ag is recognized by anti-DENV-3 and anti-ZIKV antisera. Conversely, anti-DENV-3 antisera recognizes ZIKV antigen. Anti-ZIKV antisera recognizes WNV antigen very strongly.

DENV-1 = assay: ADE / protection against DENV-1 by rabbit antisera (CPE/cell death, 4G2 immunostain); assay type: cell-based, dengue virus; settings: in vitro challenge
DENV-4 = assay: ADE / protection against DENV-4 by rabbit antisera (CPE/cell death, 4G2 immunostain); assay type: cell-based, dengue virus; settings: in vitro challenge
DENV-1 antigen = target: T2, DENV-1 antigen (Dengue virus type 1, UniProt P17763, A649T/F617I/M577V/S619T/V660I); assay: Serological cross reactivity matrix (ELISA), DENV-1 antigen; assay type: binding; settings: Immune-2 rabbit sera
T2 construct: made in house; host or cells: E. coli BL21(DE3)-pRARE
T2 sequence (P17763 571-673, looked up, stated change not applied): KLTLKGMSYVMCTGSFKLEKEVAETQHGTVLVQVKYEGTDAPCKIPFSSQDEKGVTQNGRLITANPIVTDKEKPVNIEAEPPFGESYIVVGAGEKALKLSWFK
Excerpt: as §1

DENV-2 = assay: Seroconversion, DENV-2-specific IgG titers; assay type: in vivo, rabbits; settings: three immunization regimes of Table 8
Procedure: (§2) Pre-immune test-bleeds are first obtained from adult New Zealand White rabbits via venipuncture of the marginal vein of the ear on Day 1. The rabbits are immunized intramuscularly in the flank region with (a) 10 μg of antigen in 0.2 mL saline (n=4 for non-adjuvanted, antigen+saline control cohort), or (b) 10 μg of antigen plus 100 μg of adjuvant in 0.2 mL saline (n=4 for antigen+adjuvant test cohorts). An aqueous formulation for all adjuvants and antigens is ensured. Animals are immunized on Days 1, 15, and 28. A final test-bleed is performed via the marginal vein of the ear on Day 38. Sera may be banked at −80° C. for further analysis.
(§3) Rabbits (n=4/cohort) were immunized with 10 μg each antigen per dose as described in the Standardized Rabbit Model of Immunogenicity modified as shown in Table 8.

DENV-3 = assay: Seroconversion, DENV-3-specific IgG titers; assay type: in vivo, rabbits; settings: three immunization regimes of Table 8
Procedure: as §2, §3

T1 sequence (Q32ZE1 582-689, looked up, natural form): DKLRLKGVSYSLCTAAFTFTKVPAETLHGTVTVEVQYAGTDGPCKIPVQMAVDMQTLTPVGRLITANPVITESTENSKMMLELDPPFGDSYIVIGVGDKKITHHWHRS

B1: DENV-3: DENV-3 E-glycoprotein subunit antigen, SEQ ID NO: 4 (protein)
chain: SNALKGMSYAMCTNTFVLKKEVSETQHGTILIKVEYKGEDAPCKIPFSTEDGQGKAHNGRLITANPVVTKKEEPVNIEAEPPFGESNIVIGIGDNALKINWYKK
modifications: Dengue virus 3
cross-reactivity of antisera with ZIKV antigen (ZIKV antigen): reciprocal cross-reactivity was evident; also recorded: recognizes | protection / neutralization against DENV-1 (heterologous) (DENV-1): neutralizes; also recorded: prominent heterologous protection | protection / neutralization against DENV-4 (heterologous) (DENV-4): neutralizes | cross-reactivity of antisera with DENV-1 antigen (DENV-1 antigen): Significant cross-reactivity; also recorded: recognized

B2: SGp(L)-DENV-2: SGp(L) fusion of DENV-2 antigen, SEQ ID NO: 39 (protein)
chain: MHHHHHHSTSLAEAKVLANRELDKYGVSDYYKNLINNAKTVEGVKALIDEILAALPKGTQLKGMSYSMCTGKFKVVKEIAETQHGTIVVRVQYEGDGSPCKIPFEIMDLEKRHVLGRLITVNPIVTEKDSPVNIEAEPPFGDSYIIIGVEPGQLKLSWFKK
seroconversion (DENV-2-specific IgG titers) (DENV-2): equivalence between all three immunization regimes

B3: SGp(L)-DENV-3: SGp(L) fusion of DENV-3 antigen, SEQ ID NO: 40 (protein)
chain: MHHHHHHSTSLAEAKVLANRELDKYGVSDYYKNLINNAKTVEGVKALIDEILAALPKGTLKGMSYAMCTNTFVLKKEVSETQHGTILIKVEYKGEDAPCKIPFSTEDGQGKAHNGRLITANPVVTKKEEPVNIEAEPPFGESNIVIGIGDNALKINWYKK
seroconversion (DENV-3-specific IgG titers) (DENV-3): equivalence between all three immunization regimes
